Test results reported in PMC3494873 (EMBO Molecular Medicine, 2012).
Where two headings read alike, the source gives them in different places.

B1: Recombinant Fc-his-tag-E-cadherin (extracellular portion) (Fc fusion, UniProt P12830 155-709, looked up)
chain: DWVIPPISCPENEKGPFPKNLVQIKSNKDKEGKVFYSITGQGADTPPVGVFIIERETGWLKVTEPLDRERIATYTLFSHAVSSNGNAVEDPMEILITVTDQNDNKPEFTQEVFKGSVMEGALPGTSVMEVTATDADDDVNTYNAAIAYTILSQDPELPDKNMFTINRNTGVISVVTTGLDRESFPTYTLVVQAADLQGEGLSTTATAVITVTDTNDNPPIFNPTTYKGQVPENEANVVITTLKVTDADAPNTPAWEAVYTILNDDGGQFVVTTNPVNNDGILKTAKGLDFEAKQQYILHVAVTNVVPFEVSLTTSTATVTVDVLDVNEAPIFVPPEKRVEVSEDFGVGQEITSYTAQEPDTFMEQKITYRIWRDTANWLEINPDTGAISTRAELDREDFEHVKNSTYTALIIATDNGSPVATGTGTLLLILSDVNDNAPIPEPRTIFFCERNPKPQVINIIDADLPPNTSPFTAELTHGASANWTIQYNDPTQESIILKPKMALEVGDYKINLKLMDNQNKDQVTTLEVSVCDCEGAAGVCRKAQPVEAGLQIPA
B2: Recombinant angiopoietin-like 6 (ligand, UniProt Q8NI99 21-470, looked up)
chain: RAGAPRCTYTFVLPPQKFTGAVCWSGPASTRATPEAANASELAALRMRVGRHEELLRELQRLAAADGAVAGEVRALRKESRGLSARLGQLRAQLQHEAGPGAGPGADLGAEPAAALALLGERVLNASAEAQRAAARFHQLDVKFRELAQLVTQQSSLIARLERLCPGGAGGQQQVLPPPPLVPVVPVRLVGSTSDTSRMLDPAPEPQRDQTQRQQEPMASPMPAGHPAVPTKPVGPWQDCAEARQAGHEQSGVYELRVGRHVVSVWCEQQLEGGGWTVIQRRQDGSVNFFTTWQHYKAGFGRPDGEYWLGLEPVYQLTSRGDHELLVLLEDWGGRGARAHYDGFSLEPESDHYRLRLGQYHGDAGDSLSWHNDKPFSTVDRDRDSYSGNCALYQRGGWWYHACAHSNLNGVWHHGGHYRSRYQDGVYWAEFRGGAYSLRKAAMLIRPLKL

What was measured:
Assay in all cases: SPR
[1] = molecular target: T1, Recombinant his-tag-α6β4 integrin (extracellular portions) (UniProt P23229-2 24-1011; P16144 28-710)
[2] = molecular target: T1, Recombinant his-tag-α6β4 integrin …; remark: listed apart in the source
[3] = molecular target: B1

| Kd [1] | Kd [2] | Kd [3] | Binder |
| --- | --- | --- | --- |
| 5.3 to 16.8 nM |  |  | B1 |
|  | 2.03 nM | 29 nM | B2 |
